Molecular target: human LDL (low-density lipoprotein) (human)
Assay: SPR; LDL amine-coupled to a CM5 chip (Biacore T100); LDLR^ecto (5-388 nM) or ALK1^ecto (0.19-15.3 uM) as analytes, single cycle kinetics; 25 °C; 25 mM HEPES pH 7.4, 150 mM NaCl, 0.1 mM CaCl2; 1:1 binding model; apparent

ALK1^ecto-Fc, sequence (P37023 22-118): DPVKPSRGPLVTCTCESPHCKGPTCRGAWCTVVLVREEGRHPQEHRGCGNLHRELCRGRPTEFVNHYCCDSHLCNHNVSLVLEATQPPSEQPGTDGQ

Substance: ALK1^ecto-Fc (from UniProt P37023 22-118) (Fc fusion)
- Kd: 200 nM

Substance: LDLR^ecto-(His)6 (from UniProt P01130 22-788) (domain or fragment)
- Kd: 7 nM
